Biological target: the molecule itself
Assay: SEC-MALS; Superdex 200 10/300; 500 ul of 2 mg/ml protein loaded, 0.5 ml/min; purification buffer of full-length TgLaforin (50 mM Hepes, 100 mM NaCl, 15 mM imidazole, 2 mM DTT, pH 8.0)

B1: TgLaforin (Toxoplasma gondii laforin, glucan phosphatase), full length (enzyme, UniProt S8F2K7 1-523, looked up)
chain: MRVRFSVTAFVPPNAQLGVVGSAPFLGEWKLEHCVPLMPYSAPHPQGLEPSLWFRDIDLDPASCPNDTNDVHSTAAVSASCSADRRRCDLSRQSPHCFPSARSASPYMVEVSRGDCPFAVELMSTSQHVLSEFSKHNSPVYSAGEQRFRRSLPSSASFSSCTSSGSAVAATKCVWDAAAYRVATRAPEVQAVLESHPLRHCAFEYKFVLWYPPNGEIAVPYVPTTAGEEVPITYAGDSEVLNEESEGGARRRSWRKWLFPPSPSRCPAPPGPSESIVWEGFGPDSNRKFCFDPFDVVVDVNELGDLECLYICRIAHFRDPRAGGVGEYDLTTRFYNSVKSECRMHYSTIFPRFFVGSCPRQLKHIRHLKEELKVTCVVNLQTEQDLCNNYPDPIASSRSAEAVSQLYDGSGLRYVWLPTADMCDSARKIAVANAAFLLLGLFQSGHSVYMHCNAGVGRSVAAACAFLCFAVGLDLRKVNFLICARRPVAYWDEKAMKYGIGDYQAKFGHCRVVGEEAEERQHA
notes: TgLaforin, Toxoplasma gondii glucan phosphatase, ToxoDB TGME49_205290, 523 amino acids; N-terminal split CBM20 followed by a DSP domain; predicted recombinant monomer 61.5 kDa; also called T. gondii laforin; full-length TgLaforin; source: Sf9 insect cells (baculovirus), purified (Ni-agarose, SEC) to >95% homogeneity
- stoichiometry N: 2
